Numbering of substitutions follows the chain as printed. In names and notes the source's numbering stands.

Sequences and labels used below:
T1: EsCas13d, nuclease-dead (Eubacterium siraeum, UniProt B0MS50, R295A;H300A;R849A;H854A)
T1 sequence: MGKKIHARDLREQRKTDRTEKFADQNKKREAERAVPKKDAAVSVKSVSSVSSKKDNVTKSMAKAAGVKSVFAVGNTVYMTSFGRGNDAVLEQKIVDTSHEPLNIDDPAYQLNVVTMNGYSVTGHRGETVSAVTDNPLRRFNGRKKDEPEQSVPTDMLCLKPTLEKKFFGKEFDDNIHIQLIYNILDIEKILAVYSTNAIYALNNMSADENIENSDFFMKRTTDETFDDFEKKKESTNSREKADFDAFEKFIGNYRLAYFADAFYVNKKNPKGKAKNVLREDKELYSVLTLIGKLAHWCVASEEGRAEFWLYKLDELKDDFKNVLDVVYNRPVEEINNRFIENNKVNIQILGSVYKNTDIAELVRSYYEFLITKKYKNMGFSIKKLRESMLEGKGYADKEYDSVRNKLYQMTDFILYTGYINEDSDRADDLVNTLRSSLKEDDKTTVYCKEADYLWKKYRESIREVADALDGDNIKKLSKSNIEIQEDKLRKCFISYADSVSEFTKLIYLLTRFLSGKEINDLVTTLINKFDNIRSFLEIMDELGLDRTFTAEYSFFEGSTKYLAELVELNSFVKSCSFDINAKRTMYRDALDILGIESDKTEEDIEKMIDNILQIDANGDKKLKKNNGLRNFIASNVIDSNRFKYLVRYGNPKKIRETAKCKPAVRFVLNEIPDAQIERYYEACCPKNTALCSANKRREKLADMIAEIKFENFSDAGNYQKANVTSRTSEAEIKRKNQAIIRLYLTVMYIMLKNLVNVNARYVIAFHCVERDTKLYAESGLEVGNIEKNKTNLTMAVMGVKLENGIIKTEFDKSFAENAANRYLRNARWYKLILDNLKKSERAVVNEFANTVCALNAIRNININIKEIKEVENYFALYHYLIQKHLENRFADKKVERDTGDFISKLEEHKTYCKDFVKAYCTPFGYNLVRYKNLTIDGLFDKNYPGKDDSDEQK

B1: target 1 C2U,C4G (mixed)
RNA 1: CACCCGUGCAAAAAUGCAGGGGUCUAAAACUGAGCGGAUAACCUCUCUAUGG
RNA 2: GGGAAUGGAUCCACAUCUACGAAUUCGUACCAUAGAGAGGUUAUCCGGUUACCGAGAUCGGAAGAGCACACGU
B2: target 1 insA 3' of 22,insC 3' of 19 (mixed)
RNA 1: B1 RNA 1
RNA 2: GGGAAUGGAUCCACAUCUACGAAUUCGUACACAUCAGAGAGGUUAUCCGCUCACCGAGAUCGGAAGAGCACACGU
B3: target 1 U8A,U10C (mixed)
RNA 1: B1 RNA 1
RNA 2: B1 RNA 2 with U42C, U44A, G48C, U50C
B4: target 1 insC 3' of 13,insA 3' of 7 (mixed)
RNA 1: B1 RNA 1
RNA 2: GGGAAUGGAUCCACAUCUACGAAUUCGUACCAUAGAGAGCGUUAUCACGCUCACCGAGAUCGGAAGAGCACACGU
B5: target 1 C6G,A16C (mixed)
RNA 1: B1 RNA 1
RNA 2: B1 RNA 2 with A36C, C46G, G48C, U50C
B6: target 1 insG 3' of 4,insU 3' of 2 (mixed)
RNA 1: B1 RNA 1
RNA 2: B4 RNA 2 with C40G, G41U, U43A, A44U, U45C, A47G, C50U, U51C, C52U
B7: target 1 insC 3' of 20,insA 3' of 11 (mixed)
RNA 1: B1 RNA 1
RNA 2: GGGAAUGGAUCCACAUCUACGAAUUCGUACCACUAGAGAGGUAUAUCCGCUCACCGAGAUCGGAAGAGCACACGU
B8: target 1 insC 3' of 13,insA 3' of 12 (mixed)
RNA 1: B1 RNA 1
RNA 2: B4 RNA 2 with U42A, A44U, U45A, C46U, A47C
B9: target 1 U11G,A18U (mixed)
RNA 1: B1 RNA 1
RNA 2: B1 RNA 2 with A34U, U41G, G48C, U50C
B10: target 1 U11G,U19C (mixed)
RNA 1: B1 RNA 1
RNA 2: B1 RNA 2 with U33C, U41G, G48C, U50C
B11: target 1 insU 3' of 22,insA 3' of 13 (mixed)
RNA 1: B1 RNA 1
RNA 2: B7 RNA 2 with C31U, A32C, C33A, G41A, U42G, A43U
B12: target 1 U10C,G17C (mixed)
RNA 1: B1 RNA 1
RNA 2: B1 RNA 2 with G35C, U42C, G48C, U50C
B13: target 1 insA 3' of 11,insG 3' of 6 (mixed)
RNA 1: B1 RNA 1
RNA 2: B4 RNA 2 with C40G, G41U, U42A, A47C, C48G
B14: target 1 A1G,G5A (mixed)
RNA 1: B1 RNA 1
RNA 2: B1 RNA 2 with G47A, G48C, U50C, A51G
B15: target 1 insG 3' of 18,insU 3' of 15 (mixed)
RNA 1: B1 RNA 1
RNA 2: B7 RNA 2 with C33U, U34A, A35G, A39U, G40A, U42G, A43U

This data set concerns the target T1, EsCas13d, nuclease-dead. Description: crRNA (strand 1, pre-loaded); Mg2+; 40 mM Tris-HCl pH 7.5, 150 mM NaCl, 6 mM MgCl2, 1 mM DTT, 0.1% Tween-20, 0.2 mg/ml BSA; 25 C; 10 min per concentration, then washed. The note with it: tags: His6-TwinStrep-SUMO cleaved; N-terminal SNAP kept (SNAP-Surface 488); label: 3' end held by stalled T7 RNA polymerase.
B1: binding was put at a Kd of 5.1 ± 0.5 nM.

The molecule B2 had a Kd of 51 ± 7 nM. B3: the Kd came out at 19.2 ± 1.2 nM. B4 gave a Kd of 14.2 ± 0.9 nM. B5 displayed a Kd of 42.2 ± 1.8 nM. B6: the dissociation constant (Kd) is 8.5 ± 0.4 nM. B7 displayed a dissociation constant (Kd) of 11.9 ± 0.7 nM. The figure for B8 is 15.7 ± 1 nM; for B9 it is 100 ± 25 nM; for B10 it is 86 ± 18 nM. With B11, the Kd is 17.1 ± 1.9 nM.

For B12, binding was characterised by a dissociation constant (Kd) of 63 ± 19 nM. For B13 the value was 15.7 ± 1.1 nM. Consider B14, for which the dissociation constant Kd came to 35 ± 4 nM. B15 gave a Kd of 70 ± 17 nM.

The term Kd denotes the concentration at which binding is half-saturated. Read a low Kd as a tighter complex.

Values taken from paper PMC10786891, “Massively parallel profiling of RNA-targeting CRISPR-Cas13d”.
